{"source": "paper PMC9023295", "about": "“NMR-derived secondary structure of the full-length Ox40 mRNA 3′UTR and its multivalent binding to the immunoregulatory RBP Roquin” (Nucleic Acids Research, 2022)", "molecules": {"B1": {"name": "ADE-u-CDE (structured_RNA)", "RNA": "GCCUGCCAGUACCCUCCACACCGUUCUAGGUGCUGGGCUGGCUCUGGGCUGUAUGCUAUGCAUACUAC"}, "B2": {"name": "Ox40 full-length 3'UTR (structured_RNA)", "RNA": "GCAUUACUACAGGAGUGGAUUUUAUGGGGCACGGACAACCCAUAUCCUGAUGCCUGCCAGUACCCUCCACACCGUUCUAGGUGCUGGGCUGGCUCUGGGCUUUCCUAUGUAUGCUAUGCAUACUACCUGCCUGGUGGUGCUCCUAAUAAACAUGCUA"}, "B3": {"name": "Bulge-CDE (structured_RNA)", "RNA": "GGAUUUUAUGGGGCACGGACAACCCAUAUCCUGAUUUUCCUAUGUAUGCUAUGCAUACUAC"}, "B4": {"name": "Roquin-1 amino-terminal part (N-term, residues 1-454) (domain or fragment, murine, UniProt Q4VGL6 1-454, looked up)", "chain": "MPVQAPQWTDFLSCPICTQTFDETIRKPISLGCGHTVCKMCLNKLHRKACPFDQTTINTDIELLPVNSALLQLVGAQIPEQQPITLCSGVEDTKHYEEAKKCVEELALYLKPLSSARGVGLNSTTQSVLSRPMQRKLVTLVHCQLVEEEGRIRAMRAARSLGERTVTELILQHQNPQQLSSNLWAAVRARGCQFLGPAMQEEALKLVLLALEDGSALSRKVLVLFVVQRLEPRFPQASKTSIGHVVQLLYRASCFKVTKRDEDSSLMQLKEEFRTYEALRREHDSQIVQIAMEAGLRIAPDQWSSLLYGDQSHKSHMQSIIDKLQTPASFAQSVQELTIALQRTGDPANLNRLRPHLELLANIDPSPDAPPPTWEQLENGLVAVRTVVHGLVDYIQNHSKKGADQQQPPQHSKYKTYMCRDMKQRGGCPRGASCTFAHSQEELEKFRKMNKRLV", "notes": "Roquin-1, murine, structured amino-terminal part with RING, ROQ and ZnF domains, residues 1-454 (theoretical MW 51.09 kDa); also called Roquin N-term; WT N-term; source: E. coli BL21 (DE3), expressed with 100 uM ZnCl2, purified (Ni-NTA, TEV cleavage, reverse Ni-NTA, SEC)"}}, "key": {"[1]": {"test_system": "Roquin-1 N-term (mouse)", "assay": "EMSA", "conditions": "first binding event; EMSA: 150 mM NaCl, 20 mM Tris pH 7.0, 2 mM TCEP, 1 mM MgCl2, 0.6 ug yeast tRNAPhe per 20 ul, 15 min; temperature not stated; gel in 1x TB"}, "[2]": {"molecular_target": "T1, Roquin-1 coreROQ (mouse, UniProt Q4VGL6 171-326)", "T1 sequence": "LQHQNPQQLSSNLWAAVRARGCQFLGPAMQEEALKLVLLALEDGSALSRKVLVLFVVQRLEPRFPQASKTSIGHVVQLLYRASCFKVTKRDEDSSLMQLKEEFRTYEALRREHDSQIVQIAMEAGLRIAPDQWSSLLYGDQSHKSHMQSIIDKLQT", "assay": "EMSA", "conditions": "EMSA: 150 mM NaCl, 20 mM Tris pH 7.0, 2 mM TCEP, 1 mM MgCl2, 0.6 ug yeast tRNAPhe per 20 ul, 15 min, temperature not stated, gel in 1x TB"}, "[3]": {"test_system": "Roquin-1 N-term A-site mutant (Amut) (mouse)", "assay": "EMSA", "conditions": "EMSA: 150 mM NaCl, 20 mM Tris pH 7.0, 2 mM TCEP, 1 mM MgCl2, 0.6 ug yeast tRNAPhe per 20 ul, 15 min; temperature not stated; gel in 1x TB"}, "[4]": {"molecular_target": "T2, Roquin-1 extROQ (mouse, UniProt Q4VGL6 89-404)", "T2 sequence": "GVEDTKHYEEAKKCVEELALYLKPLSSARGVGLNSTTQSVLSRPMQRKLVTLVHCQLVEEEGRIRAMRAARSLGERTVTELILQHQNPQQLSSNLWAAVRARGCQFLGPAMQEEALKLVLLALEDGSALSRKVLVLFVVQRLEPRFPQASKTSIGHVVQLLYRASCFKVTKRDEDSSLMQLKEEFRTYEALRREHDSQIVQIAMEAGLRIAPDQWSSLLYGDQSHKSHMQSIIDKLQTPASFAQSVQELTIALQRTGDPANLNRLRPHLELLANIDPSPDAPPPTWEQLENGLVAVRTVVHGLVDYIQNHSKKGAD", "assay": "EMSA", "conditions": "EMSA: 150 mM NaCl, 20 mM Tris pH 7.0, 2 mM TCEP, 1 mM MgCl2, 0.6 ug yeast tRNAPhe per 20 ul, 15 min, temperature not stated, gel in 1x TB"}, "[5]": {"molecular_target": "T2, Roquin-1 extROQ", "assay": "EMSA; two-step, comparable to WT ADE-CDE; EMSA: 150 mM NaCl, 20 mM Tris pH 7.0, 2 mM TCEP, 1 mM MgCl2, 0.6 ug yeast tRNAPhe per 20 ul, 15 min; temperature not stated; gel in 1x TB", "conditions": "protein: recombinant; tags: tag removed by TEV; label: 5' 32P; two hairpins"}, "[6]": {"molecular_target": "T2, Roquin-1 extROQ", "assay": "EMSA; single binding event; EMSA: 150 mM NaCl, 20 mM Tris pH 7.0, 2 mM TCEP, 1 mM MgCl2, 0.6 ug yeast tRNAPhe per 20 ul, 15 min; temperature not stated; gel in 1x TB", "conditions": "protein: recombinant, tags: tag removed by TEV, label: 5' 32P"}, "[7]": {"molecular_target": "T2, Roquin-1 extROQ", "assay": "EMSA; 2:1 stoichiometry; EMSA: 150 mM NaCl, 20 mM Tris pH 7.0, 2 mM TCEP, 1 mM MgCl2, 0.6 ug yeast tRNAPhe per 20 ul, 15 min; temperature not stated; gel in 1x TB", "conditions": "protein: recombinant; tags: tag removed by TEV; label: 5' 32P (EMSA)"}, "[8]": {"molecular_target": "the molecule itself", "assay": "SAXS; protein alone, concentration series 50, 100, 200, 300 uM; 150 mM NaCl, 20 mM Tris pH 7.0, 2 mM TCEP; 293 K; molecular weight by the Bayesian approach; monomer to dimer"}, "[9]": {"molecular_target": "T1, Roquin-1 coreROQ", "assay": "EMSA; triplicate; EMSA: 150 mM NaCl, 20 mM Tris pH 7.0, 2 mM TCEP, 1 mM MgCl2, 0.6 ug yeast tRNAPhe per 20 ul, 15 min; temperature not stated; gel in 1x TB", "conditions": "protein: recombinant; tags: tag removed by TEV; label: 5' 32P (EMSA); hairpin, apical hexaloop"}, "[10]": {"molecular_target": "T2, Roquin-1 extROQ", "assay": "EMSA; triplicate; EMSA: 150 mM NaCl, 20 mM Tris pH 7.0, 2 mM TCEP, 1 mM MgCl2, 0.6 ug yeast tRNAPhe per 20 ul, 15 min; temperature not stated; gel in 1x TB", "conditions": "protein: recombinant; tags: tag removed by TEV; label: 5' 32P (EMSA); hairpin, apical hexaloop"}}}
{"molecule": "Ox40 tandem ADE-CDE", "values": [{"measurement": "Kd", "setting": "[1]", "value": 78, "unit": "nM"}, {"measurement": "Kd", "setting": "[2]; transitions not resolved", "value": 379, "unit": "nM"}, {"measurement": "Kd", "setting": "[3]", "value": 593, "unit": "nM"}, {"measurement": "Kd", "setting": "[4]; first binding event", "value": 59, "unit": "nM"}, {"measurement": "Kd", "setting": "[4]; second binding event", "value": 180, "unit": "nM"}]}
{"molecule": "Ox40 CDE", "values": [{"measurement": "Kd", "setting": "[2]; triplicate", "value": 460, "unit": "nM"}, {"measurement": "Kd", "setting": "[4]; triplicate", "value": 149, "unit": "nM"}]}
{"molecule": "B1", "values": [{"measurement": "binding result", "setting": "[5]", "value": "binds"}]}
{"molecule": "GUAUUUAUGAUUUCCUAUGUAUGCUAUGCAUACUAC (structured_RNA)", "note": "[extCDE]", "values": [{"measurement": "Kd", "setting": "[6]; 5' single strand plus hairpin", "value": "~50", "unit": "nM"}]}
{"molecule": "B2", "values": [{"measurement": "Kd", "setting": "[7]", "value": "63 ± 9", "unit": "nM"}]}
{"molecule": "B3", "values": [{"measurement": "Kd", "setting": "[6]", "value": "~70.7", "unit": "nM"}]}
{"molecule": "B4", "values": [{"measurement": "binding result", "setting": "[8]", "value": "binds"}]}
{"molecule": "GCCUGCCAGUACCCUCCACACCGUUCUAGGUGCUGGGCUGGCUCUGGGC (structured_RNA)", "note": "[Ox40 ADE]", "values": [{"measurement": "Kd", "setting": "[9]", "value": "232 ± 29", "unit": "nM"}, {"measurement": "Kd", "setting": "[10]", "value": "171 ± 17", "unit": "nM"}]}
